From patent US20070015242

Target: recombinant NC1 fragment of type XVIII collagen (UniProt P39061)
UniProt P39061, sequence (P39061 whole entry, looked up, the tested form may be a part): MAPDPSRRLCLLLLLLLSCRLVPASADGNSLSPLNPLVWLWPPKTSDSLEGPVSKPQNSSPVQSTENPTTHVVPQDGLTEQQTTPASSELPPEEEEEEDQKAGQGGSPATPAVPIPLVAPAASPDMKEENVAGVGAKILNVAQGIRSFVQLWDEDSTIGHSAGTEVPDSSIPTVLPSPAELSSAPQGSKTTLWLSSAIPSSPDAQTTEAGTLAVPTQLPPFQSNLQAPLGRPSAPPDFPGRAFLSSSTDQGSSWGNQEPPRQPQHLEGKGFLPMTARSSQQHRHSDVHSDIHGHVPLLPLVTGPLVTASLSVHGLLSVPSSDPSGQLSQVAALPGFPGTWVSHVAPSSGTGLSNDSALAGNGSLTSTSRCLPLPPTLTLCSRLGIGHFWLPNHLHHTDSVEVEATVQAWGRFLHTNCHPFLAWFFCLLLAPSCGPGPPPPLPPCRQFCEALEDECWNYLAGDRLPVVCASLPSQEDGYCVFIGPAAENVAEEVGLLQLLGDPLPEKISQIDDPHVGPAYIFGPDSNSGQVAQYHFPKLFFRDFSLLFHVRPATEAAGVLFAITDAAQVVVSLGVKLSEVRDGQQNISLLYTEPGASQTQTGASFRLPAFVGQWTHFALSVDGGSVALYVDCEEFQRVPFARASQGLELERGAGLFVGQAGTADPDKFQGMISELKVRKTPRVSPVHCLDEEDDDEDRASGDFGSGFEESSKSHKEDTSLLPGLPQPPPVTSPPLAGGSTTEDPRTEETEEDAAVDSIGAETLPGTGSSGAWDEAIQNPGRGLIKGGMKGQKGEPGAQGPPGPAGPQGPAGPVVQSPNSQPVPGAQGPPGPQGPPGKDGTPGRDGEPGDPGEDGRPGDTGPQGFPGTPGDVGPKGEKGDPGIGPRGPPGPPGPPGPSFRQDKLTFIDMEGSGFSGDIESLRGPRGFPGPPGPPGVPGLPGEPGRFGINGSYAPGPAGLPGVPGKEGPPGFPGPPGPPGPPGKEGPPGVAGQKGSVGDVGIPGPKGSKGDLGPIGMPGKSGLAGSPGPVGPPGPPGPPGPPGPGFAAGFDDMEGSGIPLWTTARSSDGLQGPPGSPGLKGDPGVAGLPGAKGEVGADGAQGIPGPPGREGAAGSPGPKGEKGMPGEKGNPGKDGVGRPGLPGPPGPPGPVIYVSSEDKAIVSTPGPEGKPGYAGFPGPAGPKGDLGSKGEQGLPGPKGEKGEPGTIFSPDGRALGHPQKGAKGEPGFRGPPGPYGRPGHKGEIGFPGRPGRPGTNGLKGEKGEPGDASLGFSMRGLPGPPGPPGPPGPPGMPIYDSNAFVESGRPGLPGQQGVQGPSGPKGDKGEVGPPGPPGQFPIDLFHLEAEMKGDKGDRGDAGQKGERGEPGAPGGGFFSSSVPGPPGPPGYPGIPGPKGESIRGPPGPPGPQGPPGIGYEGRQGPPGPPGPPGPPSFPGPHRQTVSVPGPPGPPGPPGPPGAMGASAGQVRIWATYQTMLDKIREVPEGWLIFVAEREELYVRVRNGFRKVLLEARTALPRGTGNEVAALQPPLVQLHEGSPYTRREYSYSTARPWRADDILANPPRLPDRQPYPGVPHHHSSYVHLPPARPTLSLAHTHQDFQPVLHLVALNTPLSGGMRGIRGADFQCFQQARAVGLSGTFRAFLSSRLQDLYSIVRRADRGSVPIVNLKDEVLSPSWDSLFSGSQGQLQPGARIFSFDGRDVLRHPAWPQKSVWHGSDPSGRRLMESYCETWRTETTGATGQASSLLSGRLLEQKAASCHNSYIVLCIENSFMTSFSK

matrix metalloproteinase-2 (MMP-2), active enzyme, sequence (P08253 110-660): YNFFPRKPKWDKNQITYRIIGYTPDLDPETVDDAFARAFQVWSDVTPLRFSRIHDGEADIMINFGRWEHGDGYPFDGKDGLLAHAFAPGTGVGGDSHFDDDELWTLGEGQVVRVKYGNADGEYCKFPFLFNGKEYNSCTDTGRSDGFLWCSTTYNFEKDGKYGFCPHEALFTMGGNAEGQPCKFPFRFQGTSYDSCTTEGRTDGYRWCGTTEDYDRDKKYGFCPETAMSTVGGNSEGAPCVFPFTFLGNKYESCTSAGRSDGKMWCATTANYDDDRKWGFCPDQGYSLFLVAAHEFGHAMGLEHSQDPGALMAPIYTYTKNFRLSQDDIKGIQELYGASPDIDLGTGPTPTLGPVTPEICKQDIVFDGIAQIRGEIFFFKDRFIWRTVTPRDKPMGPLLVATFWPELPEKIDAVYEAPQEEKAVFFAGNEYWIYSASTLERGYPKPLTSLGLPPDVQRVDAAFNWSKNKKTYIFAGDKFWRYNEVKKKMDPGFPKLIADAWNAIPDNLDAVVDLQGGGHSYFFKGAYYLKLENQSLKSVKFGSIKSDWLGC

Row | Molecule | cleavage of recombinant NC1 fragment (Western blot of degradation products) | cleavage of NC1 fragments at pH 5.5, 6.5 and 7.5 (gel)
1 | matrix metalloproteinase-9 (MMP-9), active enzyme | Treatment of the recombinant NC1 fragment of type XVIII collagen with MMP-2 or -9, similar to control, did not produce NC1 degradation products | 
2 | matrix metalloproteinase-2 (MMP-2), active enzyme | Treatment of the recombinant NC1 fragment of type XVIII collagen with MMP-2 or -9, similar to control, did not produce NC1 degradation products | 
3 | matrix metalloproteinase-14 (MMP-14), active enzyme | MMP-7 and MMP-14 cleaved the recombinant NC1 fragment to produce neostatin-7, neostatin-14 and several endostatin-containing fragments | 
4 | matrix metalloproteinase-7 (matrilysin, MMP-7), active enzyme (enzyme, UniProt P09237 95-267, looked up, species assumed, APMA-activated) Matrilysin: YSLFPNSPKWTSKVVTYRIVSYTRDLPHITVDRLVSKALNMWGKEIPLHFRKVVWGTADIMIGFARGAHGDSYPFDGPGNTLAHAFAPGTGLGGDAHFDEDERWTDGSSLGINFLYAATHELGHSLGMGHSSDPNAVMYPTYGNGDPQNFKLSQDDIKGIQKLYGKRSNSRKK | MMP-7 and MMP-14 cleaved the recombinant NC1 fragment to produce neostatin-7, neostatin-14 and several endostatin-containing fragments | the cleavage of collagen XVIII/NC1 by MMP-7 is pH sensitive, and proceeds less efficiently at more acidic pH
